# Residue numbers refer to the chain shown, from its start. Names may count otherwise.
# B1: 24C05 (antibody, mouse IgG1, kappa)
# heavy: EVQLVESGGGLVKPGGSLKLSCAASGFTFSDYAMSWVRQTPEKRLEWVATISDGGTYTYYPDNVKGRFTISRDNAKNNLYLQMSHLKSEDTAMYYCAREWGDYDGFDYWGQGTTLTVSSAKTTPPSVYPLAPGSAAQTNSMVTLGCLVKGYFPEPVTVTWNSGSLSSGVHTFPAVLQSDLYTLSSSVTVPSSTWPSQTVTCNVAHPASSTKVDKKIVPRDCGCKPCICTVPEVSSVFIFPPKPKDVLTITLTPKVTCVVVDISKDDPEVQFSWFVDDVEVHTAQTQPREEQFNSTFRSVSELPIMHQDWLNGKEFKCRVNSAAFPAPIEKTISKTKGRPKAPQVYTIPPPKEQMAKDKVSLTCMITDFFPEDITVEWQWNGQPAENYKNTQPIMDTDGSYFVYSKLNVQKSNWEAGNTFTCSVLHEGLHNHHTEKSLSHSPGK
# light: DIQMTQSPSSLSASLGERVSLTCRASQEISGYLSWLQQKPDGTIKRLIYAASTLDSGVPKRFSGSRSGSDYSLTIGSLESEDLADYYCLQYDSYPYTFGGGTKLEIKRADAAPTVSIFPPSSEQLTSGGASVVCFLNNFYPRDINVKWKIDGSERQNGVLNSWTDQDSKDSTYSMSSTLTLTKDEYERHNSYTCEATHKTSTSPIVKSFNRNEC
# notes: Murine IgG1/kappa, from hybridoma; also called murine 24C05; 24C05 IgG1
# B2: Sh24C05-25 N62S IgG1 (antibody)
# heavy: not shown
# light: DIQMTQSPSSLSASVGDRVTITCRASQEISGYLSWFQQKPGKAPKSLIYAASTLDSGVPSRFSGSGSGTDFTLTISSLQPEDFATYYCLQYDSYPYTFGQGTKLEIKRTVAAPSVFIFPPSDEQLKSGTASVVCLLNNFYPREAKVQWKVDNALQSGNSQESVTEQDSKDSTYSLSSTLTLSKADYEKHKVYACEVTHQGLSSPVTKSFNRGEC
# notes: Humanized, human IgG1/kappa
# B3: Sh24C05-25 N62S IgG2 (antibody)
# heavy: QVQLVESGGGLVKPGGSLRLSCAASGFTFSDYAMSWIRQAPGKGLEWVSTISDGGTYTYYPDSVKGRFTISRDNAKNSLYLQMNSLRAEDTAVYYCAREWGDYDGFDYWGQGTLVTVSSASTKGPSVFPLAPCSRSTSESTAALGCLVKDYFPEPVTVSWNSGALTSGVHTFPAVLQSSGLYSLSSVVTVPSSNFGTQTYTCNVDHKPSNTKVDKTVERKCCVECPPCPAPPVAGPSVFLFPPKPKDTLMISRTPEVTCVVVDVSHEDPEVQFNWYVDGVEVHNAKTKPREEQFNSTFRVVSVLTVVHQDWLNGKEYKCKVSNKGLPAPIEKTISKTKGQPREPQVYTLPPSREEMTKNQVSLTCLVKGFYPSDIAVEWESNGQPENNYKTTPPMLDSDGSFFLYSKLTVDKSRWQQGNVFSCSVMHEALHNHYTQKSLSLSPGK
# light: B2 light
# notes: Humanized, human IgG2/kappa
# B4: Sh24C05-31 N62S IgG2 (antibody)
# heavy: B3 heavy
# light: B2 light with F36Y, S46R, D70E
# notes: Humanized, human IgG2/kappa
# B5: 12A07 (antibody, mouse IgG1, kappa, V domains shown)
# VH: QVQLLQPGAELVRPGTSVKLSCKTSGYTFSSYWMHWVKQRPGQGLEWIGMIDPSDVYTNYNPKFKGKATLTVDTSSSTAYMQLSSLTSEDSAVYYCARNYSGDYWGQGTTLTVSS
# VL: DVLMTQIPLSLPVSLGDQASISCRSSQSIVHSNGNTYLEWYLQKPGQSPKLLIYKVSNRFSGVPDRFSGSGSGTDFTLKISRVEAEDLGVYYCFQGSYVPWTFGGGTKLEIKR
# notes: Murine IgG1/kappa, from hybridoma; also called anti-hErbB3 monoclonal antibody 12A07
# B6: 04D01 (antibody, mouse IgG1, kappa, V domains shown)
# VH: QVQLQQPGAELVRPGTSVKLSCKASGYTFTSHWLHWVKQRPGQGLEWIGVLDPSDFYSNYNQNFKGKATLTVDTSSSTAYMQLSSLTSEDSAVYYCARGLLSGDYAMDYWGQGTSVTVSS
# VL: B5 VL with L51S
# notes: Murine IgG1/kappa, purified from hybridoma; also called anti-hErbB3 monoclonal antibody 04D01
# B7: 22A02 (antibody, mouse IgG1, kappa, V domains shown)
# VH: B5 VH with L5Q, T24A, S30T, S31N, V56S
# VL: B5 VL with I7T
# notes: Murine IgG1/kappa, from hybridoma; also called anti-hErbB3 monoclonal antibody 22A02
# B8: 18H02 (antibody, mouse IgG1, kappa, V domains shown)
# VH: QIQLVQSGPELKKPGEAVKISCKSSGYTFTTYGMSWVKQAPGRALKWMGWINTYSGVPTYADDFKGRFAFSLESSASTAYLQINNLKNEDTATYFCARGRDGYQVAWFAYWGQGTLVTVSA
# VL: ETTVTQSPASLSMAIGDKVTIRCITSTDIDDDMNWFQQKPGEPPKLLISEGNTLRPGVPSRFSGSGYGTDFIFTIENMLSEDVADYYCLQSDNLPYTFGGGTKLEIKR
# notes: Murine IgG1/kappa, from hybridoma; also called anti-hErbB3 monoclonal antibody 18H02
# Target: T1, human ErbB3 (human, UniProt P21860 20-1342)
# Assay: cell-based or functional assay
inhibition of NRG1-β1 induced phosphorylation of Akt in MCF7 and DU145 cells (ELISA),"inhibition of NRG1-β1 induced phosphorylation of ErbB3 in SKBR-3 cells (ELISA, 5 µg/ml antibody)",inhibition of phosphorylation of ErbB3 in exponentially growing SKBR-3 cells (ELISA),Binder
≥ 80%,≥ 50%,,B1
,,≥ 50%,B2
,,≥ 50%,B3
,,≥ 50%,B4
≥ 80%,≥ 50%,,B5
≥ 80%,≥ 50%,,B6
≥ 80%,≥ 50%,,B7
≥ 80%,≥ 50%,,B8

# Target: T1, human ErbB3
# Assay: cell-based or functional assay
# Remark: another data set of the same source
row,"IC50, NRG1-β1 dependent proliferation of MCF7 cells (MTT)",Binder
1,0.39 nM,B1
2,0.74 nM,B5
3,0.47 nM,B6
4,1.62 nM,B7
5,1 nM,B8

# Target: T2, recombinant human ErbB3/Fc fusion protein (human, UniProt P21860 20-643)
# T2 construct: Bought (R&D Systems, Cat. No. 348-RB); the NRG1-α1 assay names Cat. No. 4518-RB instead; also called rhErbB3-Fc; rhErbB3/Fc; not shown: Fc portion of the bought fusion protein
# Assay: ECL competition; inhibition of NRG1-β1 binding to plate-coated rhErbB3/Fc
# Procedure: (§1) MA2400 96-well standard binding plates (Meso Scale Discovery, Cat. No. L15XA-6) were coated with 50 μl of 0.5 μg/mL rhErbB3/Fc (R&D systems, Cat. No. 348-RB) in PBS (Invitrogen, Cat. No. 14040-133) for overnight at 4° C. with no agitation. The plates then were washed 3 times with PBS+0.1% Tween20 (Sigma P5927) and blocked with 200 μl of PBS containing 5% BSA (Sera Care Life Sciences, Cat. No. AP-4510-80) for 1.5 hour at room temperature. After washing the plates 3 times with PBS, 25 μl of the antibody dilutions were added to the plates for another hour at room temperature with agitation. […] The plates then were washed 3 times with PBS, and 150 μl of 1× read buffer (Meso Scale Discovery, Cat. No. R92TC-1) was added to each well before the plates were analyzed on a Sector® Imager 2400 (Meso Scale Discovery) instrument.
row,IC50,Binder
1,0.337 nM,B1
2,0.235 nM,B5
3,0.223 nM,B6
4,0.242 nM,B7
5,0.346 nM,B8

# Target: T2, recombinant human ErbB3/Fc fusion …
# Assay: as above
# Remark: another data set of the same source
# Procedure: (§2) Multi-array 96-well standard binding plates (Meso Scale Discovery, Cat. No. L15XA-3) were coated with 50 μl of 0.5 μg/mL rhErbB3/Fc (R&D systems, Cat. No. 348-RB) in PBS (Invitrogen, Cat. No. 14040-133) for one hour at room temperature with no agitation. The plates then were washed three times with PBS+0.1% Tween20 (Sigma P5927) and blocked with 200 μl of 100% Horse Serum, heat inactivated (GIBCO, Cat. No. 26050-088) for 1.5 hours at room temperature. After washing the plates three times with PBS+0.1% Tween, 25 μl of the antibody dilutions were added to the plates for another hour at room temperature with agitation. […] The plates then were washed three times with PBS+0.1% Tween, and 150 μl of 1× read buffer (Meso Scale Discovery, Cat. No. R92TC-1) was added to each well before the plates were analyzed on a Sector® Imager 2400 (Meso Scale Discovery) instrument.
row,IC50,Binder
1,0.122 nM,B2
2,0.112 nM,B3
3,0.086 nM,B4

# Target: T2, recombinant human ErbB3/Fc fusion …
# Assay: SPR Biacore T100, 25 C; antibody captured on anti-mouse IgG, rhErbB3-Fc injected
# Procedure: Rabbit anti-mouse IgGs (Biacore, Cat. No. BR-1008-38) were immobilized on carboxymethylated dextran CM4 sensor chips (Biacore, Cat. No. BR-1005-34) by amine coupling (BIAcore, Cat. No. BR-1000-50) using a standard coupling protocol according to vendor's instructions. The analyses were performed at 25° C., using PBS (Invitrogen, Cat. No. 14040-133) containing 0.05% surfactant P20 (Biacore, Cat. No. BR-1000-54) as running buffer.
# The antibodies were captured in individual flow cells at a flow rate of 10 μl/minute. Injection time was varied for each antibody to yield an Rₘₐₓ between 30 and 60 RU. […] The dissociation phase was monitored for up to 3600 seconds. The surface was then regenerated with two 60-seconds injection of 10 mM Glycine-HCl, pH 1.7 (made from Glycine pH 1.5 (Biacore, Cat. No. BR-1003-54) and pH 2.0 (Biacore, Cat. No. BR-1003-55)) at a flow rate of […].
# Kinetic parameters were determined using the kinetic function of the BIAevaluation software (Biacore) with double reference subtraction. Kinetic parameters for each antibody, kₐ (association rate constant), kd (dissociation rate constant) and KD (equilibrium dissociation constant) were determined.
Kd,koff,kon,Binder
0.0065 nM,9.2e-06 s⁻¹,1.5e+06 M⁻¹ s⁻¹,B1
0.3 nM,0.00019 s⁻¹,620000 M⁻¹ s⁻¹,B5
0.25 nM,9.3e-05 s⁻¹,380000 M⁻¹ s⁻¹,B6
0.32 nM,0.00022 s⁻¹,700000 M⁻¹ s⁻¹,B7
0.091 nM,2.5e-05 s⁻¹,280000 M⁻¹ s⁻¹,B8

# Target: T3, recombinant human ErbB3 monomeric protein (cleaved rhErbB3) (human, UniProt P21860 20-643, limits assumed)
# T3 construct: Monomer made by protease cleavage of the Fc fusion; also called Monomeric ErbB3
# Assay: SPR Biacore 37 C; purified antibody captured on anti-human Fc, cleaved rhErbB3 0.3125-5.0 nM
# Procedure: The analyses were performed at 37° C. using PBS (Invitrogen, Catalog No. 14040-133) containing 0.05% surfactant P20 (Biacore, Catalog No. BR-1000-54) as running buffer.
# The antibodies were captured in individual flow cells at a flow rate of […]. Injection time was varied for each antibody to yield an Rₘₐₓ between 30 and 60 RU. […] The dissociation phase was monitored for up to 1200 seconds. The surface was then regenerated with two 60 second injections of Glycine pH 2.25 (made from Glycine pH 2.0 (Biacore, Catalog No. BR-1003-55) and pH 2.5 (Biacore, Catalog No. BR-1003-56)) at […].
# The binding affinities and kinetics of certain purified monoclonal antibodies were also determined. To further characterize certain antibodies, the surface plasmon resonance experiments described above were conducted using concentrations of cleaved rhErbB3 between 0.3125 nM and 5.0 nM (a 2-fold serial dilution).
Kd,koff,kon,Binder
0.16 nM,0.00045 s⁻¹,2.9e+06 M⁻¹ s⁻¹,B2
0.12 nM,0.00034 s⁻¹,2.7e+06 M⁻¹ s⁻¹,B3
0.074 nM,0.00024 s⁻¹,3.2e+06 M⁻¹ s⁻¹,B4

# Target: T2, recombinant human ErbB3/Fc fusion …
# Assay: ECL (MSD) competition: rhErbB3/Fc coated on the plate, antibody dilutions, then NRG1-β1 at 0.25 µg/ml; bound NRG1-β1 detected
# Procedure: as §1
row,IC50 (read off the curve),Binder
1,~0.3 nM,B1
2,~0.2 nM,B5
3,~0.1 nM,B6
4,~0.2 nM,B7
5,~0.3 nM,B8

# Target: T2, recombinant human ErbB3/Fc fusion …
# Assay: as above
# Remark: another data set of the same source
# Procedure: as §2
row,IC50 (read off the curve),Binder
1,~0.1 nM,B2
2,~0.1 nM,B3
3,~0.1 nM,B4

# — patent publication US20180030149A1 (AVEO PHARMACEUTICALS, published 2018)
